Reduction in bound RhoGDI after 10 min H/0 stimulation, against unstimulated cells data for one substance are collected here from paper PMC3202633.

For the test, the target named is GFP-β1-integrin (UniProt P05556). The test can be described thus: co-IP; GFP-Trap capture of GFP-β1-integrin (or GFP alone) from MEFs spread on 50K-coated dishes, unstimulated or stimulated with H/0 for 10 min, cross-linked with DTBP; western blotting. For orientation: In western blotting, separated proteins are transferred to a membrane and probed.
Chain of UniProt P05556 (P05556 21-798): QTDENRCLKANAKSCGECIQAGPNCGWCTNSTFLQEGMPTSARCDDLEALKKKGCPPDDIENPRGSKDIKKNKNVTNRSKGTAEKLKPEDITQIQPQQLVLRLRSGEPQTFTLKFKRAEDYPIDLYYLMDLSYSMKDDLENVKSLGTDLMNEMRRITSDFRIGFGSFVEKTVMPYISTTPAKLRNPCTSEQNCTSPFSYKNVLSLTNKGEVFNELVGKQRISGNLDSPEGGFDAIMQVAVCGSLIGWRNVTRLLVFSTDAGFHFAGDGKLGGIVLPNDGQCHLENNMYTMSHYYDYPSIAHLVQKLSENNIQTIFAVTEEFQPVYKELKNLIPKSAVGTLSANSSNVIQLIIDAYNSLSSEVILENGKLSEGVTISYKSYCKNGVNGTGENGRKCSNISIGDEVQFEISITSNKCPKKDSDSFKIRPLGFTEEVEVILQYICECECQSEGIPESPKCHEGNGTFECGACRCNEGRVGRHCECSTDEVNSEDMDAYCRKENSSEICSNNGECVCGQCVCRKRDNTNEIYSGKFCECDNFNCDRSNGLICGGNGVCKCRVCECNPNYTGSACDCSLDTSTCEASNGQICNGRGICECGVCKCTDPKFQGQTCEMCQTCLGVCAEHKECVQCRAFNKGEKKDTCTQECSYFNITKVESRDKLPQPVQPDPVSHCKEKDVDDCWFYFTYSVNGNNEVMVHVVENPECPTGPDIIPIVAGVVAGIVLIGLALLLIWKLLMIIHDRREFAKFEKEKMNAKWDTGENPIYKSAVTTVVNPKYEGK

Chain of RhoGDI (Q99PT1 whole entry): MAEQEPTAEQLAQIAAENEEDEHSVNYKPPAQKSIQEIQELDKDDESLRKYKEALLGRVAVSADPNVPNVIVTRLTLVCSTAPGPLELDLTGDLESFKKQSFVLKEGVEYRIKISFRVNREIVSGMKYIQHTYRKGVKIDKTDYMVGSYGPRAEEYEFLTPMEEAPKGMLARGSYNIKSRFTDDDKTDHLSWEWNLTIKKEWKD

The substance “RhoGDI (from UniProt Q99PT1 1-204) (natural protein)” yielded a reduction in bound RhoGDI after 10 min H/0 stimulation, against unstimulated cells of 46%.
